Reference: paper doi:10.1101/2025.03.31.646278

Target: HPV16 L1 pentamer (deletion construct of the major capsid protein L1) (human papillomavirus type 16)
Experiment: cryo-EM structure

“HPV16 L1 pentamer (deletion construct of the major capsid protein L1) (domain or fragment)” was tested, and the stoichiometry N (protomers per pentamer) was 5.
